We go through two molecules from patent US20220242944A1.

The experiment deals with recombinant human PDGF-B (human) (UniProt P01127). Put plainly: SPR (Biacore T200), antibody captured by anti-human Fc, antigen as analyte, 25 degrees C, pH 7.4, 1:1 model. (In SPR one partner is held on a chip, and binding of the other changes the refractive index at the surface.)
Chain of UniProt P01127 (P01127 82-190 limits assumed): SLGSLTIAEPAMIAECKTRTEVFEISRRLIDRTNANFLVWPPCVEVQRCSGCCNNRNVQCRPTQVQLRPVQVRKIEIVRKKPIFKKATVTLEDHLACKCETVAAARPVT

B1: CPR001-GL-F1332m (antibody, V domains shown)
VH: EVQLLESGGGLVQPGGSLRLSCAASGFTFSSYAMSWVRQAPGKGLEWVSYISDDGSLKYYADSVKGRFTISRDNSKNTLYLQMNSLRAEDTAVYYCAKHPYWYGGQLDLWGQGTLVTVSS
VL: SYELTQPPSVSVSPGQTASITCSGDSLGSYFVHWYQQKPGQSPVLVIYDDSNRPSGIPERFSGSNSGNTATLTISGTQAMDEADYYCSAFTHNSDVFGGGTKLTVL
One may read the Kd as the equilibrium constant for the complex coming apart. On to B1, for which the equilibrium dissociation constant (Kd) was determined as 0.0202 nM.

B2: CPR001GLVH/xIC17-SG181v14hk (bispecific antibody, part only; not given: IC17 control arm and constant region, V domains shown, part only)
VH: EVQLLESGGGLVQPGGSLRLSCAASGFTFSSYAMSWVRQAPGKGLEWVSYISDDGSLKYYADSVKGRFTISRDNSKNTLYLQMNSLRAEDTAVYYCAKHPYWYGGQLDLWGQGTLVTVSS
VL: SYELTQPPSVSVSPGQTASITCSGDSLGSYFVHWYQQKPGQSPVLVIYDDSNRPSGIPERFSGSNSGNTATLTISGTQAMDEADYYCSAFTHNSDVFGGGTKLTVL
Consider B2, for which the Kd is 0.0165 nM.
